Data: US20240109965A1 (Ablynx, published 2024)

B1: T017001022 (bispecific antibody)
chain: DVQLVESGGGVVQPGGSLRLSCVASGYVHKINFYGWYRQAPGKEREKVAHISIGDQTDYADSAKGRFTISRDESKNTVYLQMNSLRPEDTAAYYCRALSRIWPYDYWGQGTLVTVSSGGGGSGGGSEVQLVESGGGVVQPGGSLRLSCAASGTTLDYYVIGWFRQAPGKEREGVSCISSSDGYTYYADSVKGRFTISRDNAKNTVYLQMNSLRPEDTALYYCATDPYYSSCHPFFADYEYDYWGQGTLVTVSSGGGGSGGGSEVQLVESGGGVVQPGGSLRLSCAASGFTFRSFGMSWVRQAPGKGPEWVSSISGSGSDTLYADSVKGRFTISRDNSKNTLYLQMNSLRPEDTALYYCTIGGSLSRSSQGTLVTVSS
B2: T017001029 (bispecific antibody)
chain: EVQLVESGGGVVQPGGSLRLSCAASGTTLDYYVIGWFRQAPGKEREGVSCISSSDGYTYYADSVKGRFTISRDNAKNTVYLQMNSLRPEDTALYYCATDPYYSSCHPFFADYEYDYWGQGTLVTVSSGGGGSGGGSEVQLVESGGGVVQPGGSLRLSCVASGYVHKINFYGWYRQAPGKEREKVAHISIGDQTDYAESAKGRFTISRDESKNTVYLQMNSLRPEDTAAYYCRALSRITPYDYWGQGTLVTVSSGGGGSGGGSEVQLVESGGGVVQPGGSLRLSCAASGFTFRSFGMSWVRQAPGKGPEWVSSISGSGSDTLYADSVKGRFTISRDNSKNTLYLQMNSLRPEDTALYYCTIGGSLSRSSQGTLVTVSS
B3: T017001031 (bispecific antibody)
chain: EVQLVESGGGVVQPGGSLRLSCAASGTTLDYYVIGWFRQAPGKEREGVSCISSSDGYTYYADSVKGRFTISRDNAKNTVYLQMNSLRPEDTALYYCATDPYYSSCHPFFADYEYDYWGQGTLVTVSSGGGGSGGGSEVQLVESGGGVVQPGGSLRLSCVASGYVHKINFYGWYRQAPGKEREKVAHISIGDQTDYAESAKGRFTISRDESKNTVYLQMNSLRPEDTAAYYCRALSRIQPYDYWGQGTLVTVSSGGGGSGGGSEVQLVESGGGVVQPGGSLRLSCAASGFTFRSFGMSWVRQAPGKGPEWVSSISGSGSDTLYADSVKGRFTISRDNSKNTLYLQMNSLRPEDTALYYCTIGGSLSRSSQGTLVTVSS
B4: T017000700 (VHH)
VHH: EVQLVESGGGVVQPGGSLRLSCVASGYVHKINFYGWYRQAPGKEREKVAHISIGDQTDYADSAKGRFTISRDESKNTVYLQMNSLRPEDTAAYYCRALSRIWPYDYWGQGTLVTVSS
B5: T017000946 (VHH)
VHH: EVQLVESGGGVVQPGGSLRLSCVASGYVHKINFYGWYRQAPGKEREKVAHISIGDQTDYAASAKGRFTISRDESKNTVYLQMNSLRPEDTAAYYCRALSRIWPYDYWGQGTLVTVSS
B6: T017000995 (VHH)
VHH: EVQLVESGGGVVQPGGSLRLSCVASGYVHKINFYGWYRQAPGKEREKVAHISIGDQTDYAESAKGRFTISRDESKNTVYLQMNSLRPEDTAAYYCRALSRIQPYDYWGQGTLVTVSS
B7: T017000940 (VHH)
VHH: EVQLVESGGGVVQPGGSLRLSCVASGYVHKINFYGWYRQAPGKEREKVAHISIGDQTDYARSAKGRFTISRDESKNTVYLQMNSLRPEDTAAYYCRALSRIWPYDYWGQGTLVTVSS
B8: T017000945 (VHH)
VHH: EVQLVESGGGVVQPGGSLRLSCVASGYVHKINFYGWYRQAPGKEREKVAHISIGDQTDYAESAKGRFTISRDESKNTVYLQMNSLRPEDTAAYYCRALSRIWPYDYWGQGTLVTVSS
B9: T017000981 (VHH)
VHH: EVQLVESGGGVVQPGGSLRLSCVASGYVHKINFYGWYRQAPGKEREKVAHISIGDQTDYASSAKGRFTISRDESKNTVYLQMNSLRPEDTAAYYCRALSRIYPYDYWGQGTLVTVSS
B10: T017000978 (VHH)
VHH: EVQLVESGGGVVQPGGSLRLSCVASGYVHKINFYGWYRQAPGKEREKVAHISIGDQTDYAESAKGRFTISRDESKNTVYLQMNSLRPEDTAAYYCRALSRIYPYDYWGQGTLVTVSS
notes: also called T01700978
B11: T017000976 (VHH)
VHH: EVQLVESGGGVVQPGGSLRLSCVASGYVHKINFYGWYRQAPGKEREKVAHISIGDQTDYARSAKGRFTISRDESKNTVYLQMNSLRPEDTAAYYCRALSRIYPYDYWGQGTLVTVSS
B12: T017000967 (VHH)
VHH: EVQLVESGGGVVQPGGSLRLSCVASGYVHKINFYGWYRQAPGKEREKVAHISIGDQTDYADSAKGRFTISRDESKNTVYLQMNSLRPEDTAAYYCRALSRIYPYDYWGQGTLVTVSS
B13: T017000949 (VHH)
VHH: EVQLVESGGGVVQPGGSLRLSCVASGYVHKINFYGWYRQAPGKEREKVAHISIGDQTDYAQSAKGRFTISRDESKNTVYLQMNSLRPEDTAAYYCRALSRIWPYDYWGQGTLVTVSS
B14: T017000979 (VHH)
VHH: EVQLVESGGGVVQPGGSLRLSCVASGYVHKINFYGWYRQAPGKEREKVAHISIGDQTDYAASAKGRFTISRDESKNTVYLQMNSLRPEDTAAYYCRALSRIYPYDYWGQGTLVTVSS
B15: T017000951 (VHH)
VHH: EVQLVESGGGVVQPGGSLRLSCVASGYVHKINFYGWYRQAPGKEREKVAHISIGDQTDYASSAKGRFTISRDESKNTVYLQMNSLRPEDTAAYYCRALSRIWPYDYWGQGTLVTVSS
B16: T017000980 (VHH)
VHH: EVQLVESGGGVVQPGGSLRLSCVASGYVHKINFYGWYRQAPGKEREKVAHISIGDQTDYAQSAKGRFTISRDESKNTVYLQMNSLRPEDTAAYYCRALSRIYPYDYWGQGTLVTVSS
B17: T017000938 (VHH)
VHH: EVQLVESGGGVVQPGGSLRLSCVASGYVHKINFYGWYRQAPGKEREKVAHISIGDQTDYAPSAKGRFTISRDESKNTVYLQMNSLRPEDTAAYYCRALSRIWPYDYWGQGTLVTVSS
B18: T017000944 (VHH)
VHH: EVQLVESGGGVVQPGGSLRLSCVASGYVHKINFYGWYRQAPGKEREKVAHISIGDQTDYAVSAKGRFTISRDESKNTVYLQMNSLRPEDTAAYYCRALSRIWPYDYWGQGTLVTVSS
B19: T017001001 (VHH)
VHH: EVQLVESGGGVVQPGGSLRLSCVASGYVHKINFYGWYRQAPGKEREKVAHISIGDQTDYAESAKGRFTISRDESKNTVYLQMNSLRPEDTAAYYCRALSRITPYDYWGQGTLVTVSS
B20: T017000977 (VHH)
VHH: EVQLVESGGGVVQPGGSLRLSCVASGYVHKINFYGWYRQAPGKEREKVAHISIGDQTDYAVSAKGRFTISRDESKNTVYLQMNSLRPEDTAAYYCRALSRIYPYDYWGQGTLVTVSS
B21: T017000999 (VHH)
VHH: EVQLVESGGGVVQPGGSLRLSCVASGYVHKINFYGWYRQAPGKEREKVAHISIGDQTDYAESAKGRFTISRDESKNTVYLQMNSLRPEDTAAYYCRALSRISPYDYWGQGTLVTVSS
notes: also called T01700999

Molecular target: T1, cynomolgus TCRαβ-zipper protein (cynomolgus)
T1 construct: also called cyTCR(AEA41865)-zipper; CynoTCRαβ-zipper
T1 TCR alpha: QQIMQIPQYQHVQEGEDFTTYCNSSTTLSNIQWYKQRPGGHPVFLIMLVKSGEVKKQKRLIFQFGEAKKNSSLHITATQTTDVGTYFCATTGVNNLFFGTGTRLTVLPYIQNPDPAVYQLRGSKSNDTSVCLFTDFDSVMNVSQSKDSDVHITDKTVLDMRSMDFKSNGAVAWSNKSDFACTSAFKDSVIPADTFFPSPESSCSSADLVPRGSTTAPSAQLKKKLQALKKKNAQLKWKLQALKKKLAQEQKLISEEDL
T1 TCR beta: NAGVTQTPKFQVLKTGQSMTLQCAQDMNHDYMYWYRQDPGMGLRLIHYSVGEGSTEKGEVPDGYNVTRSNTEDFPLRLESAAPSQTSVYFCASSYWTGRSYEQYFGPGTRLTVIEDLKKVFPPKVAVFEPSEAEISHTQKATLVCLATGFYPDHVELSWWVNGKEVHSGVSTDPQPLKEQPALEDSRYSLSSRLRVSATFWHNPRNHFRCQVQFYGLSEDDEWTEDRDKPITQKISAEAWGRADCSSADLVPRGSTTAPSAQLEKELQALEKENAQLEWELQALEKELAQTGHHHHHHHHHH
Experiment: SPR Biacore 8K+, multi-cycle kinetics, TCR-zipper immobilized
Procedure: Binding of purified TCE-CD123-ALB and CD123-TCE-ALB ISVD constructs to human TCRαβ-zipper protein (huTCR(2XN9)-zipper, in-house produced) and cynomolgus TCRαβ-zipper protein (cyTCR(AEA41865)-zipper, in-house produced) was probed by Surface Plasmon Resonance (SPR) (Cytiva, Biacore 8K+). Both targets were immobilized on a CM5 sensor chip using standard amine coupling chemistry. […] Each concentration of the ISVDs was injected for 180s and dissociation was assessed during 600s.
Data was double referenced by subtracting a reference flow cell (FC) and a blank buffer injection. Affinity constants (ka, kd and KD) were calculated applying the Langmuir 1:1 interaction model using the Biacore Insight Evaluation Software (Cytiva, Version 3.0.12.15655).
B1 was tested, and the Kd was 15 nM.
B2 gave a Kd of 9100 nM.
In the case of B3, the Kd is reported as 18000 nM.

The binders below were run against human T cell receptor (TCRαβ) on primary human T cells (human) (assay: cell-based or functional assay).
Sequence of human T cell receptor (TCRαβ) on primary human T cells (human) (P0DTU3 134-275, chain 1 of 2): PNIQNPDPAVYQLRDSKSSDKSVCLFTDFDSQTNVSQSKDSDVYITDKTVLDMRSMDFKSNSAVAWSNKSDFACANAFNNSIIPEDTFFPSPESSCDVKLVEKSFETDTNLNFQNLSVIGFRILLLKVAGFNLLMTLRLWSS
Sequence of human T cell receptor (TCRαβ) on primary human T cells (human) (P01850 other isoform, or with tags, fused parts or gaps, chain 2 of 2, further chain): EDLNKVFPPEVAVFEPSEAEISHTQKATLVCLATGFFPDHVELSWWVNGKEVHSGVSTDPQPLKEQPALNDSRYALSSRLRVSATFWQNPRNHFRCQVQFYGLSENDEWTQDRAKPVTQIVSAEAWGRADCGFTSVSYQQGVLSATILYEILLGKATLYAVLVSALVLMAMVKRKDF
With B1 the “EC50 (M), human T cell mediated MOLM-13 cell killing, Donor #1” value was 1.5e-11 M and the “EC50 (M), human T cell mediated MOLM-13 cell killing, Donor #2” value was 1.4e-10 M.

Molecular target: T1, cynomolgus TCRαβ-zipper protein
Experiment: SPR ProteOn XPR36, multi-cycle kinetics, TCR-zipper immobilized;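 note: monovalent His-tagged ISVD constructs flowed at six concentrations over amine-coupled TCR on a GLC chip, 120 s association, 600 s dissociation, double-referenced, fitted to 1:1 Langmuir model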
Procedure: Binding of purified, monovalent TCE-FLAG3-HIS6 and TCE-HIS6 ISVD constructs to human TCRαβ-zipper protein (huTCR(2XN9)-zipper, in-house produced) and cynomolgus TCRαβ-zipper protein (cyTCR(AEA41865)-zipper, in-house produced) was probed by Surface Plasmon Resonance (SPR) (Bio-rad Laboratories, Inc., ProteOn XPR36). Both targets were immobilized on a GLC sensor chip (short matrix, normal capacity) using standard amine coupling chemistry. ISVD constructs were injected at 6 different concentrations in a multi-cycle kinetics (MCK) experiment. Each concentration of the ISVDs was injected for 120s and dissociation was assessed during 600s.
Data was double referenced by subtracting a reference analyte lane and a blank buffer injection. Affinity constants (ka, kd and KD) were calculated applying the Langmuir 1:1 interaction model using the ProteOn Manager 3.1.0 (Bio-rad Laboratories, Inc., Version 3.1.0.6).
B4 showed a Kd of 8 nM.
In the case of B5, the “KD ratio cy/huTCR” value is reported as 3.1, the “KD ratio vs ref” value is reported as 0.9 and the Kd is reported as 7 nM. The koff was 0.0019 s⁻¹ and the kon was 270000 M⁻¹ s⁻¹.
For B6, the “KD ratio cy/huTCR” value was 2, the “KD ratio vs ref” value was 246 and the Kd was 2000 nM. For the same binder, the koff was 0.093 s⁻¹ and the kon was 47000 M⁻¹ s⁻¹.
B7 was tested, and the “KD ratio cy/huTCR” value was 3.2, the “KD ratio vs ref” value was 0.8 and the Kd was 6.1 nM. It also gave a koff of 0.0019 s⁻¹ and a kon of 320000 M⁻¹ s⁻¹.
With B8 the “KD ratio cy/huTCR” value was 3.1, the “KD ratio vs ref” value was 0.9 and the Kd was 7.1 nM. For the same binder, the koff was 0.0018 s⁻¹ and the kon was 260000 M⁻¹ s⁻¹.
In the case of B9, the “KD ratio cy/huTCR” value is reported as 3.8, the “KD ratio vs ref” value is reported as 2.1 and the Kd is reported as 17 nM. The koff was 0.0035 s⁻¹ and the kon was 210000 M⁻¹ s⁻¹.
B10 was tested, and the “KD ratio cy/huTCR” value was 4, the “KD ratio vs ref” value was 2.5 and the Kd was 20 nM. For the same binder, the koff was 0.0033 s⁻¹ and the kon was 170000 M⁻¹ s⁻¹.
In the case of B11, the “KD ratio cy/huTCR” value is reported as 3.9, the “KD ratio vs ref” value is reported as 1.9 and the Kd is reported as 15 nM. The koff was 0.0035 s⁻¹ and the kon was 230000 M⁻¹ s⁻¹.
With B12 the “KD ratio cy/huTCR” value was 3.1, the “KD ratio vs ref” value was 1.7 and the Kd was 14 nM. For the same binder, the koff was 0.0028 s⁻¹ and the kon was 200000 M⁻¹ s⁻¹.
B13 was tested, and the “KD ratio cy/huTCR” value was 3.2, the “KD ratio vs ref” value was 0.8 and the Kd was 6.8 nM. It also gave a koff of 0.0019 s⁻¹ and a kon of 280000 M⁻¹ s⁻¹.
B14 was tested, and the “KD ratio cy/huTCR” value was 3.8, the “KD ratio vs ref” value was 2.3 and the Kd was 19 nM. For the same binder, the koff was 0.0035 s⁻¹ and the kon was 180000 M⁻¹ s⁻¹.
In the case of B15, the “KD ratio cy/huTCR” value is reported as 3, the “KD ratio vs ref” value is reported as 0.9 and the Kd is reported as 7.4 nM. The koff was 0.002 s⁻¹ and the kon was 260000 M⁻¹ s⁻¹.
For B16, the “KD ratio cy/huTCR” value was 4, the “KD ratio vs ref” value was 2.1 and the Kd was 17 nM. It also gave a koff of 0.0034 s⁻¹ and a kon of 210000 M⁻¹ s⁻¹.
B17 was tested, and the “KD ratio cy/huTCR” value was 3.2, the “KD ratio vs ref” value was 0.8 and the Kd was 6.7 nM. For the same binder, the koff was 0.0019 s⁻¹ and the kon was 280000 M⁻¹ s⁻¹.
B18 was tested, and the “KD ratio cy/huTCR” value was 3, the “KD ratio vs ref” value was 0.9 and the Kd was 7 nM. It also gave a koff of 0.0019 s⁻¹ and a kon of 280000 M⁻¹ s⁻¹.
In the case of B19, the “KD ratio cy/huTCR” value is reported as 3.1, the “KD ratio vs ref” value is reported as 133 and the Kd is reported as 1100 nM. It also gave a koff of 0.034 s⁻¹ and a kon of 32000 M⁻¹ s⁻¹.
With B20 the “KD ratio cy/huTCR” value was 4.3, the “KD ratio vs ref” value was 2.4 and the Kd was 19 nM. The koff was 0.0035 s⁻¹ and the kon was 180000 M⁻¹ s⁻¹.
For B21, the “KD ratio cy/huTCR” value was 2.5, the “KD ratio vs ref” value was 43 and the Kd was 350 nM. It also gave a koff of 0.018 s⁻¹ and a kon of 51000 M⁻¹ s⁻¹.
